Data set [1] concerns the target T1, Tau441 (2N4R tau) (Homo sapiens, UniProt P10636-8 P10636-8:1-441). Put plainly: dot blot, 250 nM. The conditions noted are these: tags: N-terminal His-tag, SignalChem (biotin-labelled for functional SELEX and BLI); label: FAM. How it is done: (§1) FIG. 38A is the flow cytometry results analyzing primary binding between aptamer candidates and Tau 441. FIG. 38B is a dot blot assay showing aptamer binding specificity. FIG. 38A Primary binding analysis between aptamer candidates and Tau 441. FIG. 38B Aptamers binding specificity by dot blot assay. The nitrocellulose membranes were socked in methanol until becoming wet (1 min) then the membranes were washed with PBST solution for 5 mins. BSA, Casein, IgG, Tau and P-Tau (1 μg per protein) were respectively immobilized as striped dots on the NC membranes by air-drying. The membranes were blocked with 1% fat-free milk in PBST for 1 hour and incubated with heat-denatured aptamers (250 nM) labeled with FAM for 1 hour at room temperature. Control DNA were random sequence DNA with FAM label. The membranes were washed three times with TBST. Dots were scanned by Typhoon Imaging System (Amersham Biosciences).
(§2) The preliminary investigation of binding ability between aptamers and Tau441 was validated by flow cytometry. […] Furthermore, the binding specificity of the selected tau aptamers to full-length Tau441 protein was confirmed by dot blotting by incubating each of the FAM-labeled aptamers with nitrocellulose membranes which have already been immobilized with either target Tau441 protein or nontarget proteins (FIG. 38B). […] No cross-reactivity was observed between the aptamers and the nontarget proteins, including: α casein, β casein, BSA (bovine serum albumin), and IgG (immunoglobin G). Particularly, the membranes were blocked by milk after immobilizing with each protein which further illustrated the strong specificity of the obtained aptamers.

Data set [2] has as its target T2, Bovine serum albumin (BSA) (Bos taurus, UniProt P02769 P02769:25-607). Put plainly: dot blot. How it is done:
as §1, §2

Data set [3] has as its target T1, Tau441 (2N4R tau). Put plainly: EMSA; 400 nM aptamer, 0.2 mg/mL protein, 4 C. The conditions noted are these: tags: N-terminal His-tag, SignalChem (biotin-labelled for functional SELEX and BLI). How it is done: (§3) To determine the specificity of the circular aptamer against Tau441 protein, 5 μL of 400 nM Tau (IT2a) aptamer or circular aptamer were first incubated with 0.2 mg/mL target Tau441 protein or control proteins (S100B, BSA) at 4° C. for 30 minutes. Then, each sample was loaded onto an 8% native PAGE gel. The gel was run in 1×TBE at 70 V for 10 minutes and 150 V for 40 minutes. Finally, the gel was stained with Coomassie blue for protein detection and scanned in the fluorescein channel using Typhoon for aptamer detection.
(§4) After interaction, each sample was loaded onto the nondenaturing gel for protein detection with Coomassie Brilliant Blue staining (FIG. 13A) and aptamer fluorescence (FIG. 13B) detection. […] Five microliters of 400 nM Tau (IT2a) aptamer or circular aptamer was first incubated with 0.2 mg/mL target Tau441 protein or control proteins at 4° C. for 30 minutes. […] For FIG. 13A and FIG. 13 B, Lanes 1 and 6: Ladder; Lane 2: IT2a aptamer; Lane 3: IT2a aptamer+Tau441 (67 kDa); Lane 4: IT2a aptamer+S100B (9 kDa); Lane 5: IT2a aptamer+BSA (66 kDa); Lane 7: Circular aptamer; Lane 8: Circular aptamer+Tau411 (67 kDa); Lane 9: Circular aptamer+S100B (9 kDa); Lane 10: Circular aptamer+BSA (66 kDa).
(In general: In EMSA bound probe runs differently from free probe, usually more slowly.)

The target in data set [4] is T2, Bovine serum albumin (BSA). Put plainly: EMSA; profile stated same as circular aptamer. The conditions noted are these: label: FITC-dT near 3' end; hairpin. How it is done:
as §3, §4

The target of data set [5] is T1, Tau441 (2N4R tau). Put plainly: dot blot, 100 nM; stronger than BW1, BW1a, BW1b. The conditions noted are these: tags: N-terminal His-tag, SignalChem (biotin-labelled for functional SELEX and BLI); label: 5' Cy5.
Experimental: The nitrocellulose membranes were socked in methanol till it becomes wet (1 min) then the membranes were washed with TBST solution for 5 mins. Tau protein (stripped band 0.5 μg) were dripped on the NC membranes in every dot and then waited to dry (2 mins). The membranes were blocked with 1% fat-free milk in TBST for 1 hour and were respectively incubated with series of heat denatured aptamers (250 nM) for 1 hour in blocking buffer (contain 0.5 mM Mg²⁺) at room temperature. Next the membrane was washed for three times by TBST, 5 min for each time. Dots were scanned simultaneously by a Typhoon Imaging System (Amersham Biosciences).
Data set [6] addresses T1, Tau441 (2N4R tau). Put plainly: dot blot, 250 nM; best flow cytometry shift; Kd only in figure. The settings on record: tags: N-terminal His-tag, SignalChem (biotin-labelled for functional SELEX and BLI); label: FAM or 5' Cy5. How it is done:
as §1
The preliminary investigation of binding ability between aptamers and Tau441 was validated by flow cytometry. […] Furthermore, the binding specificity of the selected tau aptamers to full-length Tau441 protein was confirmed by dot blotting by incubating each of the FAM-labeled aptamers with nitrocellulose membranes which have already been immobilized with either target Tau441 protein or nontarget proteins (FIG. 38B). […]
(In general: A flow cytometer gives signals particle by particle.)

Data set [7] has as its target T2, Bovine serum albumin (BSA). Put plainly: EMSA; specificity control. The settings on record: label: one or two FITC-dT. How it is done: as §3, §4

T1 sequence (P10636 other isoform, or with tags, fused parts or gaps): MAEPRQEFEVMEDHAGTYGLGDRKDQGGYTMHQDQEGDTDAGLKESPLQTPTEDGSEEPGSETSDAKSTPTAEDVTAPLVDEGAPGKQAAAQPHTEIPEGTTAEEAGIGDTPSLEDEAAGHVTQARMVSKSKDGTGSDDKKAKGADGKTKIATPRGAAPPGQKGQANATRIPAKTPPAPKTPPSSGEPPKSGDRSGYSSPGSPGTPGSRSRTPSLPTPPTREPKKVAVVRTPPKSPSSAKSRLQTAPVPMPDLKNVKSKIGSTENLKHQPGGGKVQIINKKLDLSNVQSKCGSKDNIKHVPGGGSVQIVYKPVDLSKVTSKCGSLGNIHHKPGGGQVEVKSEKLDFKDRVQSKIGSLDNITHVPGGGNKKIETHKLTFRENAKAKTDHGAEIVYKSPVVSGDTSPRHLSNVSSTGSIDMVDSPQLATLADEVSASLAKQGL
T2 sequence (P02769 25-607, one chain of several): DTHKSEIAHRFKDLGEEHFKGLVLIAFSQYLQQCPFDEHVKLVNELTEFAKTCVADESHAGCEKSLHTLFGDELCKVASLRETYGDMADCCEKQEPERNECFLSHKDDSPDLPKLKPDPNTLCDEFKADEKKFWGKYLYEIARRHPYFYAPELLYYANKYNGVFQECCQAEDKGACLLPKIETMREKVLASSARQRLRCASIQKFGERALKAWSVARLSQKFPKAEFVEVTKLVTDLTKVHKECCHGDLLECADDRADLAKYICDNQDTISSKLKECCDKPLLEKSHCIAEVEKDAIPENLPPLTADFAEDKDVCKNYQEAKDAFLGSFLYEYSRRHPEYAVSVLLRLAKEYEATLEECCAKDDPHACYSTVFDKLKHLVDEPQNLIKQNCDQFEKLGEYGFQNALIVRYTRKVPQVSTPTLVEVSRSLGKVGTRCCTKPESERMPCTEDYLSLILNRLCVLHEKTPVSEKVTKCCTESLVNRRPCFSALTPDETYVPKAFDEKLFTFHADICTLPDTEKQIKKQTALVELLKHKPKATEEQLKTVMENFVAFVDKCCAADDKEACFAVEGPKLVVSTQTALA

B1: BW2 (ssDNA)
DNA: TCACCTGAGACTTGACGATGGCCTCCCCCTCACGCACTCTTCCGTTTCTTCTTATCTGAGTGCTATCGTCTGTCCA
On to B1, for which the figures for the binding result (in the data set with Tau441 (2N4R tau) [1]; in data set [2] (label: FAM)) were “binds” and “no binding”, respectively.

B2: IT2a Tau aptamer (13-base extended) (ssDNA)
DNA: TGACTGATTTACGGAAGCTGAATAAGGACTGCTTAGGATTGCGATGATTCAGCTTC
Regarding B2, the binding result in the data set with Tau441 (2N4R tau) [3] (label: FITC-dT near 3' end, hairpin) is “binds”; in data set [4], “no binding”.

B3: BW4 (ssDNA)
DNA: TCACCTGAGACTTGACGATGGTTTAACTCCCCCACGCCCCCCGCCAACCCATCTCCAGAGTGCTATCGTCTGTCCA
As to B3, the binding result with Tau441 (2N4R tau) [1] is “binds”; in data set [2] (label: FAM) it was “no binding”.

B4: BW10 (ssDNA)
DNA: TCACCTGAGACTTGACGATGGCAATCCCCCCGACACCGAATCCTAAGCGAACAACGCGAGTGCTATCGTCTGTCCA
Consider B4, for which the binding result with Tau441 (2N4R tau) [1] was “binds”; in data set [2] (label: FAM), “no binding”.

B5: BW3 (ssDNA)
DNA: TCACCTGAGACTTGACGATGGAACTCCCCCCACCATTATCAGCGCACCACCATTGTAGAGTGCTATCGTCTGTCCA
B5: the binding result was “binds” with Tau441 (2N4R tau) [1] and “no binding” in data set [2] (label: FAM).

B6: BW7 (ssDNA)
DNA: TCACCTGAGACTTGACGATGGTGACCACCCCCCACGCACACACACCTCTTCCATCCTGAGTGCTATCGTCTGTCCA
In the case of B6, the results for the binding result (with Tau441 (2N4R tau) [1]; in data set [2] (label: FAM)) were “binds” and “no binding”, respectively.

B7: BW5 (ssDNA)
DNA: TCACCTGAGACTTGACGATGGTACGACGGCCCCCCGATTATGCGACTACTTGATTTGAGTGCTATCGTCTGTCCA
On to B7, for which the binding result in the data set with Tau441 (2N4R tau) [1] was “binds”; in data set [2] (label: FAM), “no binding”.

B8: BW9 (ssDNA)
DNA: TCACCTGAGACTTGACGATGGGAACAAACACCGCGACCACCCCCCCACTTAACTCCTGAGTGCTATCGTCTGTCCA
Consider B8, for which the binding result with Tau441 (2N4R tau) [1] was “binds”; in data set [2] (label: FAM), “no binding”.

B9: BW1c (ssDNA)
DNA: GACGATAGCATCACTCCCCCCCACCTATTACATCATCATAAATTGAGTGCTATCGTC
As for B9, the binding result in the data set with Tau441 (2N4R tau) [5] was “binds”.

B10: BW6 (ssDNA)
DNA: TCACCTGAGACTTGACGATGGTCAGAACGACGCGCCCCCCACCTCATTCATTATTTTGAGTGCTATCGTCTGTCCA
As to B10, the binding result in the data set with Tau441 (2N4R tau) [1] is on record as “binds”; in data set [2] (label: FAM), “no binding”.

B11: BW8 (ssDNA)
DNA: TCACCTGAGACTTGACGATGGCACTACCCCTCCCTACTAAGCACGGTATCTTGTACTGAGTGCTATCGTCTGTCCA
With B11, the binding result with Tau441 (2N4R tau) [1] was “binds”; in data set [2] (label: FAM) it was “no binding”.

B12: BW1 (ssDNA)
DNA: TCACCTGAGACTTGACGATGGCATCACTCCCCCCCACCTATTACATCATCATAAATTGAGTGCTATCGTCTGTCCA
B12: the results for the binding result (with Tau441 (2N4R tau) [6]; in data set [2] (label: FAM or 5' Cy5)) were “binds” and “no binding”, respectively.

B13: Circular Tau-TfR bispecific aptamer (structured_DNA)
DNA: TGACTGATTTACGGAAGCTGAATAAGGACTGCTTAGGATTGCGATGATTCAGCTTCCGTAAATCAGTCAGAAGGCGTGGTACCACGCTTTC
In the case of B13, the binding result with Tau441 (2N4R tau) [3] (label: one or two FITC-dT) was “binds”; in data set [7] it was “no binding”.

(Values after patent publication US20230159935, “[…] BIFUNCTIONAL […] AND TRIFUNCTIONAL […] TARGETING Tau” (UNIVERSITY OF FLORIDA RESEARCH FOUNDATION, INCORPORATED, published 2023).)
